Experimental data: publication PMC4282423

Target: T1, BldD (His-tagged) (Streptomyces coelicolor) (UniProt Q7AKQ8)
T1 sequence: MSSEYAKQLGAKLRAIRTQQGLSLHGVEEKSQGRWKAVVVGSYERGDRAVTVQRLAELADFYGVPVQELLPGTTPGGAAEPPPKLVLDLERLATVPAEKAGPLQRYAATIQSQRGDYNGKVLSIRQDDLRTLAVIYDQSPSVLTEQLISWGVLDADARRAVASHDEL
Assay: DNase I footprinting
Conditions: EMSA and extract footprinting: 25 mM HEPES pH 7.5, 4 mM DTT, 1 mM ATP, 10 mM Mg-acetate, 4% glycerol, 1 ug poly(dI-dC), 30 C, 20 min; purified BldD …

“GTGCAGGCCGTCAGCAGCAGGGCGGAGGCGCCCAGGGCACCGACCACGGCCAGCGAACGCAAGGGGGGAAGTCGTCGTGCAGAGCTCATGATGCTGTCCGTAACCGCTCCGTCACGCAGACACACCGGACCGGTATGAAAATCACCCTATTGGCCGGGGTGGGGCGACGTCCCGTGGGCGGCGGGACCGGGAGCCTTCAG (double strand) [sspA promoter footprint probe (7434_F1/7434_R1)]” was tested, and the binding was “binds”.
